Assay results: patent US20250152743A1, “SYNPOPTOSIS CIRCUITS FOR PROGRAMMABLE CELL DEATH CONTROL” (California Institute of Technology, priority 2023, published 2025)

Columns and labels:
[1] = tested on: co-culture of engineered HEK cells that stably express Input 1, Input 2, or both, and wildtype cells; assay: Synpoptosis gates in co-culture of four input-state cell lines, Annexin flow cytometry; assay type: cell-based, human; details: Input 1 TEVP (Cherry), Input 2 TVMVP (Citrine)
Procedure: As a proof of concept for combinatorial targeting, the synpoptosis gates were tested in a co-culture of engineered HEK cells that stably express Input 1, Input 2, or both, and wildtype cells that express neither. Input 1 with Cherry and Input 2 with Citrine were co-expressed, such that the two fluorescent protein profiles represented input patterns (FIG. 4C, Quadrant layout). The co-culture of the four cell lines were then transfected with the synthetic apoptosis gates to analyze their killing specificity. Transfections of no caspase-3 (FIG. 4C, Mock) and active caspase-3 (FIG. 4C, Indiscriminate) were used to establish background and ceiling apoptosis levels, respectively. […] Similar killing specificities were observed when the synthetic pyroptosis gates were transfected into the co-culture (FIG. 4D).
For experiments that required stable transgene expression, stable cell lines were engineered using lentiviruses followed by antibiotic selection, or using the PiggyBac transposase system. […] The next day, the cells were co-transfected using Lipofectamine 2000 with three plasmids, pLVX-M-PURO (Addgene plasmid #125839) containing the gene of interest, the TEVP-activatable Citrine reporter for instance, psPAX2 (Addgene plasmid #12260), and pCMV-VSV-G (Addgene plasmid #8454). We kept the mass ratio of the three plasmids at 9:9:2 (450 ng:450 ng:100 ng). In some experiments involving cells stably expressing two or more transgenes, the lentiviruses were generated using multiple pLVX-M-PURO plasmids carrying different genes of interest. An alternative ratio of pLVX-M-PURO:psPAX2:pCMV-VSV-G was 2:2:1 (2.4 μg:2.4 μg:1.2 μg), which was used to generate lentiviruses for stable integration of IL-1β and IL-18 genes. […] The RasGC line, or HEK293 cells stably expressing human H-Ras G12V mutant along with a Cerulean fluorescence marker, was generated using the PiggyBac method. […] One week later, the cells were sorted based on Cerulean fluorescence to obtain the final RasGC line. […]

[2] = Engineered Casp3 variants without input protease and with Ras sensor protease; details: without an input protease
Procedure: In this experiment, we tested the wild-type TEVP activatable Casp3 protein against the engineered Casp3 variants (v2.1 and v2.2) as described above. Each Casp3 variant was tested without an input protease and with a Ras sensor protease.

B1: AND-gated caspase-3: TEVP-activatable caspase-3 fused to a TVMVP-removable degron; SEQ ID NO: 23 (protein)
chain: MGSENTENSVDSKSIKNLEPKIIHGSESMDSGISLDNSYKMDYPEMGLCIIINNKNFHKSTGMTSRSGTDVDAANLRETFRNLKYEVRNKNDLTREEIVELMRDVSKEDHSKRSSFVCVLLSHGEEGIIFGTNGPVDLKKITNFFRGDRCRSLTGKPKLFIIQACRGTELDCGIETENLYFQSGVDDDMACHKIPVEADFLYAYSTAPGYYSWRNSKDGSWFIQSLCAMLKQYADKLEFMHILTRVNRKVATEFESFSFDATFHAKKQIPCIVSMLTKELYFYHGGSGLETVRFQSGSGSISLIAALAVDYVIGMENAMPWNLPADLAWFKRNTLNKPVIMGRHTWESIGRPLPGRKNIILSSQPSTDDRVTWVKSVDEAIAACGDVPEIMVIGGGRVIEQFLPKAQKLYLTHIDAEVEGDTHFPDYEPDDWESVFSEFHDADAQNSHSYCFEILERR
Question: For B1, which “killing specificity, Annexin staining” value [1] is on record?
Answer: triggered apoptosis predominantly in double-positive cells

B2: Caspase3_v2.1: nHalo-tevs-Casp3te-tevs-cHalo-CAAX; SEQ ID NO: 44 (protein)
chain: MEIGTGFPFDPHYVEVLGERMHYVDVGPRDGTPVLFLHGNPTSSYVWRNIIPHVAPGSENLYFQSGSENTENSVDSKSIKNLEPKIIHGSESMDSGISLDNSYKMDYPEMGLCIIINNKNFHKSTGMTSRSGTDVDAANLRETFRNLKYEVRNKNDLTREEIVELMRDVSKEDHSKRSSFVCVLLSHGEEGIIFGTNGPVDLKKITNFFRGDRCRSLTGKPKLFIIQACRGTELDCGIETENLYFQSGVDDDMACHKIPVEADFLYAYSTAPGYYSWRNSKDGSWFIQSLCAMLKQYADKLEFMHILTRVNRKVATEFESFSFDATFHAKKQIPCIVSMLTKELYFYHSTGSENLYFQSGSTHRCIAPDLIGMGKSDKPDLGYFFDDHVRFMDAFIEALGLEEVVLVIHDWGSALGFHWAKRNPERVKGIAFMEFIRPIPTWDEWPEFARETFQAFRTTDVGRKLIIDQNVFIEGTLPMGVVRPLTEVEMDHYREPFLNPVDREPLWRFPNELPIAGEPANIVALVEEYMDWLHQSPVPKLLFWGTPGVLIPPAEAARLAKSLPNCKAVDIGPGLNLLQEDNPDLIGSEIARWLSTLEISGGSSGGGGRSKLNPPDESGPGCMSCKCVLS
Question: Which results are given for B2?
Answer: background (TEVP-independent) cell death / Casp3 activation [2]: making TEVP-independent Casp3 activation less likely; background (TEVP-independent) cell death / Casp3 activation ([2]; listed as v2.1): reduced to statistically non-significant amounts

B3: caspase-3 variant designed to activate in the presence of Input 1 and the absence of Input 2: TEVP-removable degron on small subunit, TVMVP-activatable N-degron on large subunit (SEQ ID NOs: 25, 26) (protein)
chain 1: MGSETVRFQYHKSGAWKLPVSLVKEQLEKKLQALEKKLAQLEWKNQALEKKLAQENTENSVDSKSIKNLEPKIIHGSESMDSGISLDNSYKMDYPEMGLCIIINNKNFHKSTGMTSRSGTDVDAANLRETFRNLKYEVRNKNDLTREEIVELMRDVSKEDHSKRSSFVCVLLSHGEEGIIFGTNGPVDLKKITNFFRGDRCRSLTGKPKLFIIQACRGTELDCGIETD
chain 2: MGSSGVDDDMACHKIPVEADFLYAYSTAPGYYSWRNSKDGSWFIQSLCAMLKQYADKLEFMHILTRVNRKVATEFESFSFDATFHAKKQIPCIVSMLTKELYFYHGGSGALKKELQANKKELAQLKWELQALKKELAQGGSGLENLYFQSGSGSISLIAALAVDYVIGMENAMPWNLPADLAWFKRNTLNKPVIMGRHTWESIGRPLPGRKNIILSSQPSTDDRVTWVKSVDEAIAACGDVPEIMVIGGGRVIEQFLPKAQKLYLTHIDAEVEGDTHFPDYEPDDWESVFSEFHDADAQNSHSYCFEILERR
Question: Which “killing specificity, Annexin staining” value [1] does the source give for B3 here?
Answer: restricted apoptosis to the corresponding cells

B4: Caspase3_v2.2: nCasp3-tevs-nHalo-tevs-cHalo-tevs-cCasp3-CAAX; SEQ ID NO: 45 (protein)
chain: MENTENSVDSKSIKNLEPKIIHGSESMDSGISLDNSYKMDYPEMGLCIIINNKNFHKSTGMTSRSGTDVDAANLRETFRNLKYEVRNKNDLTREEIVELMRDVSKEDHSKRSSFVCVLLSHGEEGIIFGTNGPVDLKKITNFFRGDRCRSLTGKPKLFIIQACRGTELDCGIETENLYFQSEIGTGFPFDPHYVEVLGERMHYVDVGPRDGTPVLFLHGNPTSSYVWRNIIPHVAPENLYFQSTHRCIAPDLIGMGKSDKPDLGYFFDDHVRFMDAFIEALGLEEVVLVIHDWGSALGFHWAKRNPERVKGIAFMEFIRPIPTWDEWPEFARETFQAFRTTDVGRKLIIDQNVFIEGTLPMGVVRPLTEVEMDHYREPFLNPVDREPLWRFPNELPIAGEPANIVALVEEYMDWLHQSPVPKLLFWGTPGVLIPPAEAARLAKSLPNCKAVDIGPGLNLLQEDNPDLIGSEIARWLSTLEISENLYFQSGVDDDMACHKIPVEADFLYAYSTAPGYYSWRNSKDGSWFIQSLCAMLKQYADKLEFMHILTRVNRKVATEFESFSFDATFHAKKQIPCIVSMLTKELYFYHSTGGSSGGGGRSKLNPPDESGPGCMSCKCVLS
Question: For B4, which “background (TEVP-independent) cell death / Casp3 activation” value [2] is on record?
Answer: background Casp3 activation is reduced

Question: What about the “background (TEVP-independent) cell death / Casp3 activation” value ([2]; listed as v2.2) of the same molecule?
Answer: reduced to statistically non-significant amounts

B5: OR-gated caspase-3: tandem TEVP and TVMVP cleavage sites at the inter-subunit linker of caspase-3; SEQ ID NO: 24 (protein)
chain: MGSENTENSVDSKSIKNLEPKIIHGSESMDSGISLDNSYKMDYPEMGLCIIINNKNFHKSTGMTSRSGTDVDAANLRETFRNLKYEVRNKNDLTREEIVELMRDVSKEDHSKRSSFVCVLLSHGEEGIIFGTNGPVDLKKITNFFRGDRCRSLTGKPKLFIIQACRGTELDCGIETENLYFQSETVRFQSGVDDDMACHKIPVEADFLYAYSTAPGYYSWRNSKDGSWFIQSLCAMLKQYADKLEFMHILTRVNRKVATEFESFSFDATFHAKKQIPCIVSMLTKELYFYH
Question: For B5, which “killing specificity, Annexin staining” value [1] is on record?
Answer: caused apoptosis in single-positive and double-positive cells, sparing only double-negative cells
